The values that follow come from publication PMC8629902, “Structure–function relationships explain CTCF zinc finger mutation phenotypes in cancer”.

This series deals with T1, CTCF WT (UniProt P49711 1-727).
T1 sequence: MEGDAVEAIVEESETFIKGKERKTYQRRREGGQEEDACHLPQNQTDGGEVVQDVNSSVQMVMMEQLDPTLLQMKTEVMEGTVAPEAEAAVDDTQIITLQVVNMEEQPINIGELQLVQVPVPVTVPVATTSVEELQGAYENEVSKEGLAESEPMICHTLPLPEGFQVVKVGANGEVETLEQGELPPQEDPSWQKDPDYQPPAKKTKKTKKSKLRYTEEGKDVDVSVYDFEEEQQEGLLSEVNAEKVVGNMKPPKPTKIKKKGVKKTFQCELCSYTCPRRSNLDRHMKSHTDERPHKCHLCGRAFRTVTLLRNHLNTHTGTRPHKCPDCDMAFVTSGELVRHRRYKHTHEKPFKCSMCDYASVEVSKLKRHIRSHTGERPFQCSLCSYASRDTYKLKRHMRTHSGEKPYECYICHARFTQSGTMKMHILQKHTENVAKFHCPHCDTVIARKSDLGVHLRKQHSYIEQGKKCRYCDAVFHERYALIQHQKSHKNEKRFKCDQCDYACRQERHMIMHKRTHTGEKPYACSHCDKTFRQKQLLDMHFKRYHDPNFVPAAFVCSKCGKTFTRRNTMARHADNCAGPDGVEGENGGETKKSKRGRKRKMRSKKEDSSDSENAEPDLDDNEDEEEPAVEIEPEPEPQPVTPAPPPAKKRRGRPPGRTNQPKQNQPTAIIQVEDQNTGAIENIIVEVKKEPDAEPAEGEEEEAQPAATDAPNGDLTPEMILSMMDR
Put plainly: pull-down; TnT lysate protein with bead-bound DNA, 3 h at 4 C; beads washed before and after binding in PIB (250 mM NaCl, 50 mM Tris pH 8.0, 0.25% IGEPAL, EDTA-free protease inhibitor); anti-CTCF Western blot. The note with it: protein: ivt; tags: FLAG (pcDNA3.1-FLAG); label: 5' biotin on S3 strand; blunt. On the technique in general: Immunoblotting shows a protein as a band on a membrane.

B1: core CTCF binding site probe (dsDNA)
DNA 1: AGGACCAGCAGGGGGCGCA
DNA 2: TGCGCCCCCTGCTGGTCCT
With B1, the binding result is given as “binds”.
